The numbers were not newly measured in paper PMC8892085, which cites them from elsewhere.

The data set concerns the target TLR4 (Homo sapiens) (UniProt O00206).

Chain of HMGB1 (P09429 whole entry): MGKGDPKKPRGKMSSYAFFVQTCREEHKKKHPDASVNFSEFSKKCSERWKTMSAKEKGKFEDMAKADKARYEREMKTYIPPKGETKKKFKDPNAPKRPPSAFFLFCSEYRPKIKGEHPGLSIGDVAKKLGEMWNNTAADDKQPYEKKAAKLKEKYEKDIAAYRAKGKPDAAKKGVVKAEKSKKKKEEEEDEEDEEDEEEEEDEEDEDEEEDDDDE
Chain of TLR4 (Homo sapiens) (O00206 24-839): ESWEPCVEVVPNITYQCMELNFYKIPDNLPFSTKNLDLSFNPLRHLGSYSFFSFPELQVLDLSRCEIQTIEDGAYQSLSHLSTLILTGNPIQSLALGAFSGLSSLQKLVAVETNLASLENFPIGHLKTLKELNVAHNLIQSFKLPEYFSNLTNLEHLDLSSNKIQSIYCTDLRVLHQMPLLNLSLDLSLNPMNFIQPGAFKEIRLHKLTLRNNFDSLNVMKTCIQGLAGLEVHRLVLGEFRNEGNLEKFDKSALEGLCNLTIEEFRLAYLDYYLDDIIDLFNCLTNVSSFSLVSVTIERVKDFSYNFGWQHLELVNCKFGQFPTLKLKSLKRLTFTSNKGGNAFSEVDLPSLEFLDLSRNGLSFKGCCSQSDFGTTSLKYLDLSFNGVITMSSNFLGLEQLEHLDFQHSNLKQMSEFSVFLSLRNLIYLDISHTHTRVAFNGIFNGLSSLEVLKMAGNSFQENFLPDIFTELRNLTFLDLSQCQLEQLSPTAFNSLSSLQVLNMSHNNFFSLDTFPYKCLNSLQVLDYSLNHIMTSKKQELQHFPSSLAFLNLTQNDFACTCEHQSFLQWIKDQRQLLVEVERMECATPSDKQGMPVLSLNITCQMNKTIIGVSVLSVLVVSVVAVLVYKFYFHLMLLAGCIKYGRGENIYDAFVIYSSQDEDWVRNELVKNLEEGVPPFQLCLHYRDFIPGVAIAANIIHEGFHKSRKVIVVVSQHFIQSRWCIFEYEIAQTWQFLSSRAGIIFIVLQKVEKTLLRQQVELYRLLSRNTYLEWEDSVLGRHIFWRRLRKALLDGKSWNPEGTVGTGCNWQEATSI

In the case of HMGB1 (from UniProt P09429), the Kd was 0.6 µM.
